Test results: publication PMC3953389, “Dimerization of VirD2 Binding Protein Is Essential for Agrobacterium Induced Tumor Formation in Plants” (PLoS Pathogens, 2014)
pKd: −log10 of the molar value.

Assays:
[1] = target: C-terminal (HEPN) domain of VBP (Agrobacterium tumefaciens C58); experiment: SEC; size-exclusion chromatography of the purified protein, apparent mass against molecular weight standards; 200 mM NaCl buffers (VBP: 20 mM Tris-HCl pH 8.0, 5% glycerol; HEPN: 30 mM CHES pH 9.0, 5% glycerol; NT: 30 mM Tris-HCl pH 7.5)
[2] = target: C-terminal (HEPN) domain of VBP (Agrobacterium tumefaciens C58); experiment: AUC; sedimentation velocity, 1 mg/ml, 40,000 rpm, 24°C, absorbance at 280 nm, Sedfit
[3] = target: T1, VBP (VirD2-binding protein) (Agrobacterium fabrum, UniProt Q7CW19); experiment: isothermal titration calorimetry
T1 construct: gene Atu4856; full-length VBP with 6His tag (pET32a, E. coli BL21(DE3)); homodimer 75 kDa; predicted NT domain aa 10-133, HEPN domain aa 159-279

[4] = target: VirD2-binding protein (VBP), full-length, wild type, 6His-tagged (Agrobacterium tumefaciens C58); experiment: SEC; size-exclusion chromatography of the purified protein, apparent mass against molecular weight standards; 200 mM NaCl buffers (VBP: 20 mM Tris-HCl pH 8.0, 5% glycerol; HEPN: 30 mM CHES pH 9.0, 5% glycerol; NT: 30 mM Tris-HCl pH 7.5)
[5] = target: VirD2-binding protein (VBP), full-length, wild type, 6His-tagged (Agrobacterium tumefaciens C58); experiment: AUC; sedimentation velocity, 1 mg/ml, 40,000 rpm, 24°C, absorbance at 280 nm, Sedfit

Question: How did the stoichiometry N [1] turn out when “C-terminal (HEPN) domain of VBP (domain or fragment)” was run?
Answer: Its stoichiometry N is 2.

Question: What about the stoichiometry N [2] of the same molecule?
Answer: Its stoichiometry N is 2.

Question: With `Nc1ncnc2c1ncn2[C@@H]1O[C@H](COP(=O)(O)OP(=O)(O)NP(=O)(O)O)[C@@H](O)[C@H]1O` [AMPPNP] as the molecule, how does the pKd [3] read?
Answer: Its pKd is 5.70.

Question: Which stoichiometry N [4] does the source give for “VirD2-binding protein (VBP), full-length, wild type, 6His-tagged (natural protein)” here?
Answer: Its stoichiometry N is 2.

Question: What about the stoichiometry N [5] of the same molecule?
Answer: Its stoichiometry N is 2.
